No end group written: not given here.

Results on seven molecules are retold here after patent US6558950 (MCGILL UNIVERSITY, dated 2003).

Data set [1] addresses T1, Bax (transfected, 293T cells) (UniProt Q07812 1-192, limits assumed).
T1 construct: Detected with rabbit anti-Bax sc-526; also called the pro-apoptotic member of the Bcl-2 family
Put plainly: anti-Flag co-immunoprecipitation, anti-Bax Western blot. The protocol: After centrifugation at 11,000 g, the supernatant was incubated with 50 µl of a 1:1 slurry of protein G Sepharose for 1 hour at 4° C. The Sepharose was removed and the supernatant incubated with mouse M2 anti-Flag antibody (IBI-A Kodak Co., New Haven, Conn.) at 4° C. for 6–8 hours, at which time 20 µl of a 1:1 slurry of proteinG Sepharose was added. After 1 hour at 4° C., the beads were recovered, washed, and boiled in SDS sample buffer. Following SDS PAGE and transfer to nitrocellulose, blots were developed with either mouse anti-Myc 9E1D antibody or mouse anti-HA 12CA5 antibody (both from Babco, Berkeley, Calif.) or rabbit anti-Bax sc-526 antibody (commercially available from Santa Cruz Biotech., Inc., Santa Cruz, Calif.).
In general terms: Immunoblotting shows a protein as a band on a membrane.

In data set [2] the target is T2, 35S-labelled transcription-translation product of p28 Bap31 cDNA.
T2 chain: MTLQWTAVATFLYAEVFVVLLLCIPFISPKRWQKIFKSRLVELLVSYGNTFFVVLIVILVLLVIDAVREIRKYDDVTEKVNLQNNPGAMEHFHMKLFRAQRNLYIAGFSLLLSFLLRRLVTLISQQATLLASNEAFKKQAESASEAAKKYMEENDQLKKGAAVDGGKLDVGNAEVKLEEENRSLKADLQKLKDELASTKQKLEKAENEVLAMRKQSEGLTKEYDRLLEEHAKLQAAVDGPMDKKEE

The target of data set [3] is T3, 32P-Bcl-2Δc21/his6/HMK (human, UniProt P10415 1-218, 32P-labelled with heart muscle kinase and 32P-gamma-ATP at the C-terminal HMK recognition sequence (arg-arg-ala-ser)).
T3 construct: range 1-218; Expressed in E. coli from the pTrchis vector; a soluble mixture of monomers and dimers at pH 7.4; also called 32P-labelled Bcl-2 cytosolic domain probe
T3 sequence (P10415 other isoform, or with tags, fused parts or gaps mutant limits assumed): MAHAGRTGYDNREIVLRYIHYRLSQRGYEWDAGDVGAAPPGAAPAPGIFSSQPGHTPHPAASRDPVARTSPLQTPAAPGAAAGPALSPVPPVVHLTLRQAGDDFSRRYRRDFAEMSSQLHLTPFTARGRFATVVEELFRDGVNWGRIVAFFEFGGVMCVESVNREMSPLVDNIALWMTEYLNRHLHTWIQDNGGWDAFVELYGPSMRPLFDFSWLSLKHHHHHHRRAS
Put plainly: Far Western blot of reverse phase HPLC fractions (FIG. 2B). On the procedure:
Aliquots of fractions eluted from the gel were assayed by ^32P-Bcl-2Δc21/his6/HMK Far Western blotting analysis, and the radioactive bands corresponding to p20 and p21 Bax were detected and quantified by Phosphorimager. The levels relative to the maximal signal detected (set at 100) were plotted as a bar graph (upper panel). […] The positions of molecular mass marker proteins are indicated. The black bars on the graph indicate p20. The white stippled bars on the graph indicate p21 Bax. Figure 2B: FIG. 2B is a reverse phase HPLC analysis ($A280$ profile; upper panel) and corresponding graph (lower panel) showing proteins eluted between 190 and 220 ml from the preparative SDS PAGE of FIG. 2A. Equal aliquots from all fractions were assayed for ^32P-Bcl-2Δc21/his6/HMK interacting protein by Far Western blotting analysis, for which only p20 was detected. Amounts relative to the maximal signal detected (set at 100) were plotted as a bar graph (lower panel). […]
Identification of the p20 Bcl-2-binding polypeptide was obtained by NH_2-terminal peptide sequence analysis of p20 following its isolation by a combination of differential solubilization in detergent, preparative SDS PAGE, and reverse phase HPLC (FIGS. 2A and 2B). […] One candidate sequence emerged, and was the only sequence that was detected in the peak fraction of Bcl-2 binding activity (fraction 54, FIG. 2B).

Data set [4] has as its target T3, 32P-Bcl-2Δc21/his6/HMK. Kind of data set: Far Western blot of purified GST fusion proteins.

T1 sequence (Q07812 whole entry): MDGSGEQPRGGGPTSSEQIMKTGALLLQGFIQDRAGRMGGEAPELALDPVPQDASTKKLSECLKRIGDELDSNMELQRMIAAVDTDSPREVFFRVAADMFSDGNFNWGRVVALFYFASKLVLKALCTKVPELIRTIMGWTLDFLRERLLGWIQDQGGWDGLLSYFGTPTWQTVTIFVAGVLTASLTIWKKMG

B1: Flag-tagged p28 Bap31 (other)
chain: MTLQWTAVATFLYAEVFVVLLLCIPFISPKRWQKIFKSRLVELLVSYGNTFFVVLIVILVLLVIDAVREIRKYDDVTEKVNLQNNPGAMEHFHMKLFRAQRNLYIAGFSLLLSFLLRRLVTLISQQATLLASNEAFKKQAESASEAAKKYMEENDQLKKGAAVDGGKLDVGNAEVKLEEENRSLKADLQKLKDELASTKQKLEKAENEVLAMRKQSEGLTKEYDRLLEEHAKLQAAVDGPMDYKDDDDKAMDKKEE
Turning to B1, the binding result in data set [1] is on record as “no binding”.

B2: CPP32 (caspase-3) (protein)
chain: SGISLDNSYKMDYPEMGLCIIINNKNFHKSTGMTSRSGTDVDAANLRETFRNLKYEVRNKNDLTREEIVELMRDVSKEDHSKRSSFVCVLLSHGEEGIIFGTNGPVDLKKITNFFRGDRCRSLTGKPKLFIIQACRGTELDCGIETDSGVDDDMACHKIPVEADFLYAYSTAPGYYSWRNSKDGSWFIQSLCAMLKQYADKLEFMHILTRVNRKVATEFESFSFDATFHAKKQIPCIVSMLTKELYFYH
Regarding B2, the “cleavage of 35S-labelled p28 Bap31 in vitro (SDS-PAGE)” value in data set [2] is recorded as “little reactivity was observed for caspase-3 over a wide range of enzyme concentration”.

B3: p20 cleavage product of p28 Bap31 (other)
chain: MTLQWTAVATFLYAEVFVVLLLCIPFISPKRWQKIFKSRLVELLVSYGNTFFVVLIVILVLLVIDAVREIRKYDDVTEKVNLQNNPGAMEHFHMKLFRAQRNLYIAGFSLLLSFLLRRLVTLISQQATLLASNEAFKKQAESASEAAKKYMEENDQLKKGAAVD
notes: Endogenous product in apoptotic human KB cells, on SDS-PAGE blots; also called cleavage product "b"
For the molecule B3, the binding result with 32P-Bcl-2Δc21/his6/HMK [3] is “binds”.

B4: GST-p28 (1-164) (other)
chain: B3 chain
notes: Expressed in E. coli and purified on glutathione Sepharose; also called GST-p20; not shown: glutathione S-transferase encoded by pGEX-2T (Pharmacia)
Regarding B4, the binding result in the data set with 32P-Bcl-2Δc21/his6/HMK [4] was “binds”.

B5: GST-p28 (122-164) (other)
chain: LISQQATLLASNEAFKKQAESASEAAKKYMEENDQLKKGAAVD
modifications: also: GST fusion
notes: Expressed in E. coli and purified on glutathione Sepharose; not shown: glutathione S-transferase encoded by pGEX-2T (Pharmacia)
Regarding B5, the binding result with 32P-Bcl-2Δc21/his6/HMK [4] is listed as “no binding”.

B6: GST-p28 (1-246) (other)
chain: T2 chain
notes: Expressed in E. coli and purified on glutathione Sepharose; The thrombin-site linker of pGEX-2T is not described; also called GST-p28 Bap31; not shown: glutathione S-transferase encoded by pGEX-2T (Pharmacia)
B6: the binding result in the data set with 32P-Bcl-2Δc21/his6/HMK [4] is on record as “binds”.

B7: FLICE (caspase-8) (protein)
chain: SESQTLDKVYQMKSKPRGYCLIINNHNFAKAREKVPKLHSIRDRNGTHLDAGALTTTFEELHFEIKPHDDCTVEQIYEILKIYQLMDHSNMDCFICCILSHGDKGIIYGTDGQEAPIYELTSQFTGLKCPSLAGKPKVFFIQACQGDNYQKGIPVETDSEEQPYLEMDLSSPQTRYIPDEADFLLGMATVNNCVSYRNPAEGTWYIQSLCQSLRERCPRGDDILTILTEVNYEVSNKDDKKNMGKQMPQPTFTLRKKLVFPSD
B7: the “p20 cleavage product quantitated on a Phosphorimager” value in data set [2] was “p28 Bap31 was more sensitive to cleavage by FLICE (caspase-8) than ICE (caspase-1)”.
